For one data set, the system named is biotinyl-Leu-oxazolone. In words: self-aminoacylation, catalytic enhancement (BLO) (fold over background); higher = more active; k-Seq, kA / k0A0; sequences stand for … in GGGAAUGGAUCCACAUCUACGAAUUC…UUCACUGCAGACUUGACGAAGCUG
The procedure, abridged:
(§1)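 Mutagenized RNA pools with a 21-nt variable region (0.43 μM) reacted with each biotinyl-aminoacyl-oxazolone at 2–1250 μM. Reactions ran in 50 μL HEPES/NaCl/KCl/MgCl2/CaCl2 buffer with 5% acetonitrile, pH 6.9–7.0, for 90 minutes at room temperature. Streptavidin-captured RNA was quantified by triplicate qPCR and Illumina sequencing, and per-sequence fraction reacted was fit to a pseudo-first-order model with 1000 bootstraps. Catalytic enhancement is median kA divided by the uncatalyzed rate, the low-activity peak of a bimodal Gaussian fit.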

In the next data set the test system is biotinyl-Val-oxazolone. In words: self-aminoacylation, catalytic enhancement (BVO) (fold over background); higher = more active; k-Seq, kA / k0A0; sequences stand for … in GGGAAUGGAUCCACAUCUACGAAUUC…UUCACUGCAGACUUGACGAAGCUG
The procedure, abridged:
as §1

Another data set concerns biotinyl-Trp-oxazolone. Put plainly: self-aminoacylation, catalytic enhancement (BWO) (fold over background); higher = more active; k-Seq, kA / k0A0; sequences stand for … in GGGAAUGGAUCCACAUCUACGAAUUC…UUCACUGCAGACUUGACGAAGCUG
The procedure, abridged:
as §1

The test system of another data set is biotinyl-Phe-oxazolone. Put plainly: self-aminoacylation, catalytic enhancement (BFO) (fold over background); higher = more active; k-Seq, kA / k0A0; sequences stand for … in GGGAAUGGAUCCACAUCUACGAAUUC…UUCACUGCAGACUUGACGAAGCUG
An outline of the steps: as §1

Another data set deals with biotinyl-Met-oxazolone. Put plainly: self-aminoacylation, catalytic enhancement (BMO) (fold over background); higher = more active; k-Seq, kA / k0A0; sequences stand for … in GGGAAUGGAUCCACAUCUACGAAUUC…UUCACUGCAGACUUGACGAAGCUG
An outline of the steps:
as §1

In the next data set the test system is biotinyl-Ile-oxazolone. In words: self-aminoacylation, catalytic enhancement (BIO) (fold over background); higher = more active; k-Seq, kA / k0A0; sequences stand for … in GGGAAUGGAUCCACAUCUACGAAUUC…UUCACUGCAGACUUGACGAAGCUG
An outline of the steps: as §1

Fewer inactive variants are shown than the library holds.

These results are taken from the supplement of paper PMC9233669.

In the case of “ACGUUUGCUAAUAGUCUCAAG [Fam3.1 aminoacylation ribozyme variant]”, the self-aminoacylation in the data set with biotinyl-Leu-oxazolone worked out at 1.02; with biotinyl-Val-oxazolone, 1.13; with biotinyl-Trp-oxazolone, 2.15; in the data set with biotinyl-Phe-oxazolone, 3.28; in the data set on biotinyl-Met-oxazolone it was 0.921; in the data set on biotinyl-Ile-oxazolone, 1.11.
As for “ACGUUUGCUAAUAGUGGCAAG [Fam3.1 aminoacylation ribozyme variant]”, the self-aminoacylation in the data set with biotinyl-Leu-oxazolone was 0.804; in the data set on biotinyl-Val-oxazolone it was 0.741; with biotinyl-Trp-oxazolone it was 0.59; in the data set with biotinyl-Phe-oxazolone, 0.738; with biotinyl-Met-oxazolone it was 0.75; in the data set on biotinyl-Ile-oxazolone, 0.853.
“ACGUUUGCUAAUAGUUGCAAG [Fam3.1 aminoacylation ribozyme variant]”: the self-aminoacylation was 1.33 in the data set with biotinyl-Leu-oxazolone; 1.17 with biotinyl-Val-oxazolone; 1.15 with biotinyl-Trp-oxazolone; 2.12 in the data set on biotinyl-Phe-oxazolone; 1.26 in the data set with biotinyl-Met-oxazolone; 1.45 in the data set with biotinyl-Ile-oxazolone.
As to “ACGUUUGCUAUUAGUCGCAAG [Fam3.1 aminoacylation ribozyme variant]”, the self-aminoacylation amounted to 1.18 in the data set on biotinyl-Leu-oxazolone; 1.21 with biotinyl-Val-oxazolone; 2.22 in the data set on biotinyl-Trp-oxazolone; 1.31 in the data set with biotinyl-Phe-oxazolone; 1.67 with biotinyl-Met-oxazolone; 1.5 in the data set with biotinyl-Ile-oxazolone.
On to “ACUACCCUGCUCAUCGAGUGA [Fam2.1 aminoacylation ribozyme variant]”, for which the self-aminoacylation in the data set with biotinyl-Leu-oxazolone was 2.44; with biotinyl-Val-oxazolone, 1.85; with biotinyl-Trp-oxazolone it was 1.93; in the data set with biotinyl-Phe-oxazolone, 2.39; in the data set with biotinyl-Met-oxazolone it was 1.45; in the data set with biotinyl-Ile-oxazolone, 1.37.
Consider “ACUACCCUGGACAUCGAGUGA [Fam2.1 aminoacylation ribozyme variant]”, for which the self-aminoacylation came out at 6.83 in the data set with biotinyl-Leu-oxazolone; 2.92 with biotinyl-Val-oxazolone; 7.37 with biotinyl-Trp-oxazolone; 20.6 in the data set with biotinyl-Phe-oxazolone; 7.03 in the data set with biotinyl-Met-oxazolone; 2.55 in the data set on biotinyl-Ile-oxazolone.
With “ACUACCCUGGGCAUCGAGUGA [Fam2.1 aminoacylation ribozyme variant]”, the self-aminoacylation with biotinyl-Leu-oxazolone was found to be 7.95; in the data set on biotinyl-Val-oxazolone, 4.49; in the data set with biotinyl-Trp-oxazolone, 6.86; in the data set on biotinyl-Phe-oxazolone, 41.4; in the data set on biotinyl-Met-oxazolone, 7.11; in the data set on biotinyl-Ile-oxazolone, 3.65.
Turning to “ACUACCCUGGUCAACGAGUGA [Fam2.1 aminoacylation ribozyme variant]”, the self-aminoacylation in the data set with biotinyl-Leu-oxazolone came out at 5.55; with biotinyl-Val-oxazolone, 3.82; in the data set with biotinyl-Trp-oxazolone it was 6.49; with biotinyl-Phe-oxazolone, 17; in the data set on biotinyl-Met-oxazolone, 5.53; in the data set on biotinyl-Ile-oxazolone, 3.48.
On to “ACUACCCUGGUCAUCAAGUGA [Fam2.1 aminoacylation ribozyme variant]”, for which the self-aminoacylation in the data set with biotinyl-Leu-oxazolone was 2.37; in the data set with biotinyl-Val-oxazolone it was 1.67; in the data set on biotinyl-Trp-oxazolone, 2.76; in the data set with biotinyl-Phe-oxazolone it was 5.04; in the data set with biotinyl-Met-oxazolone, 3.19; in the data set with biotinyl-Ile-oxazolone, 1.67.
For the sequence “ACUACCCUGGUCAUCGAGCGA [Fam2.1 aminoacylation ribozyme variant]”, the self-aminoacylation was 1.95 in the data set with biotinyl-Leu-oxazolone; 1.94 in the data set with biotinyl-Val-oxazolone; 1.82 in the data set with biotinyl-Trp-oxazolone; 2.05 in the data set on biotinyl-Phe-oxazolone; 1.91 with biotinyl-Met-oxazolone; 2.04 in the data set on biotinyl-Ile-oxazolone.
“ACUACCCUGGUCAUCGAGUAA [Fam2.1 aminoacylation ribozyme variant]”: the self-aminoacylation with biotinyl-Leu-oxazolone amounted to 8.99; with biotinyl-Val-oxazolone it was 3.99; in the data set on biotinyl-Trp-oxazolone, 8; in the data set on biotinyl-Phe-oxazolone, 20.1; in the data set with biotinyl-Met-oxazolone, 9.42; with biotinyl-Ile-oxazolone it was 3.33.
For “ACUACCCUGGUCAUCGAGUGU [Fam2.1 aminoacylation ribozyme variant]”, the self-aminoacylation with biotinyl-Leu-oxazolone was found to be 59.7; with biotinyl-Val-oxazolone it was 20.3; in the data set with biotinyl-Trp-oxazolone it was 53.1; in the data set with biotinyl-Phe-oxazolone, 409; in the data set on biotinyl-Met-oxazolone, 58.6; in the data set on biotinyl-Ile-oxazolone, 16.3.
Turning to “ACUACCCUGGUCAUCGCGUGA [Fam2.1 aminoacylation ribozyme variant]”, the self-aminoacylation was found to be 21.5 in the data set on biotinyl-Leu-oxazolone; 12.1 in the data set with biotinyl-Val-oxazolone; 19.3 in the data set with biotinyl-Trp-oxazolone; 163 with biotinyl-Phe-oxazolone; 17.9 in the data set with biotinyl-Met-oxazolone; 8.88 in the data set on biotinyl-Ile-oxazolone.
With “ACUACCCUGGUCAUCGUGUGA [Fam2.1 aminoacylation ribozyme variant]”, the self-aminoacylation in the data set with biotinyl-Leu-oxazolone is 3.39; with biotinyl-Val-oxazolone, 2.33; in the data set with biotinyl-Trp-oxazolone, 3.83; in the data set on biotinyl-Phe-oxazolone, 24.4; with biotinyl-Met-oxazolone it was 4.14; in the data set on biotinyl-Ile-oxazolone it was 1.58.
On to “ACUACCCUGGUCAUCUAGUGA [Fam2.1 aminoacylation ribozyme variant]”, for which the self-aminoacylation in the data set with biotinyl-Leu-oxazolone is 7.72; in the data set on biotinyl-Val-oxazolone, 3.97; in the data set with biotinyl-Trp-oxazolone, 7.62; in the data set on biotinyl-Phe-oxazolone it was 63.1; in the data set with biotinyl-Met-oxazolone, 7.5; in the data set on biotinyl-Ile-oxazolone it was 3.86.
In the case of “ACUACCCUGGUCAUUGAGUGA [Fam2.1 aminoacylation ribozyme variant]”, the self-aminoacylation was 8.8 in the data set on biotinyl-Leu-oxazolone; 4.05 with biotinyl-Val-oxazolone; 8.89 with biotinyl-Trp-oxazolone; 34 in the data set on biotinyl-Phe-oxazolone; 7.75 in the data set on biotinyl-Met-oxazolone; 4.12 in the data set with biotinyl-Ile-oxazolone.
Take “ACUACCCUGGUCCUCGAGUGA [Fam2.1 aminoacylation ribozyme variant]”: the self-aminoacylation in the data set on biotinyl-Leu-oxazolone amounted to 3.84; in the data set with biotinyl-Val-oxazolone, 2.25; with biotinyl-Trp-oxazolone, 4.3; in the data set on biotinyl-Phe-oxazolone, 17.6; with biotinyl-Met-oxazolone, 4.59; with biotinyl-Ile-oxazolone it was 2.6.
“ACUACCCUGGUCGUCGAGUGA [Fam2.1 aminoacylation ribozyme variant]”: the self-aminoacylation in the data set with biotinyl-Leu-oxazolone was 1.95; in the data set with biotinyl-Val-oxazolone, 1.19; in the data set with biotinyl-Trp-oxazolone it was 0.701; in the data set on biotinyl-Phe-oxazolone it was 6.66; with biotinyl-Met-oxazolone, 1.49; in the data set with biotinyl-Ile-oxazolone, 1.17.
Take “ACUACCCUGGUGAUCGAGUGA [Fam2.1 aminoacylation ribozyme variant]”: the self-aminoacylation in the data set with biotinyl-Leu-oxazolone was 7.61; in the data set with biotinyl-Val-oxazolone, 3.6; in the data set with biotinyl-Trp-oxazolone it was 9.48; in the data set on biotinyl-Phe-oxazolone, 28; with biotinyl-Met-oxazolone it was 6.46; in the data set on biotinyl-Ile-oxazolone, 4.03.
On to “ACUACCUUGGUCAUCGAGUGA [Fam2.1 aminoacylation ribozyme variant]”, for which the self-aminoacylation is 4.02 in the data set on biotinyl-Leu-oxazolone; 3.23 with biotinyl-Val-oxazolone; 5.82 in the data set with biotinyl-Trp-oxazolone; 10.5 with biotinyl-Phe-oxazolone; 3.77 in the data set with biotinyl-Met-oxazolone; 2.96 in the data set on biotinyl-Ile-oxazolone.
Turning to “ACUCACCGAGGUCAUCGGGUG [Fam2.2 aminoacylation ribozyme variant]”, the self-aminoacylation in the data set on biotinyl-Leu-oxazolone came to 7.63; in the data set with biotinyl-Val-oxazolone, 5.07; with biotinyl-Trp-oxazolone, 8.16; in the data set with biotinyl-Phe-oxazolone it was 41.6; with biotinyl-Met-oxazolone it was 6.05; in the data set on biotinyl-Ile-oxazolone it was 4.34.
Turning to “ACUCACCUAGAUCAUCGGGUG [Fam2.2 aminoacylation ribozyme variant]”, the self-aminoacylation worked out at 3.38 in the data set with biotinyl-Leu-oxazolone; 3.13 in the data set with biotinyl-Val-oxazolone; 5.49 in the data set on biotinyl-Trp-oxazolone; 26.9 in the data set on biotinyl-Phe-oxazolone; 2.99 in the data set with biotinyl-Met-oxazolone; 2.9 with biotinyl-Ile-oxazolone.
In the case of “ACUCACCUAGGACAUCGGGUG [Fam2.2 aminoacylation ribozyme variant]”, the self-aminoacylation stood at 4.64 with biotinyl-Leu-oxazolone; 4.87 in the data set on biotinyl-Val-oxazolone; 4.88 in the data set on biotinyl-Trp-oxazolone; 20.1 with biotinyl-Phe-oxazolone; 3.82 in the data set with biotinyl-Met-oxazolone; 3.36 in the data set on biotinyl-Ile-oxazolone.
As to “ACUCACCUAGGUCAACGGGUG [Fam2.2 aminoacylation ribozyme variant]”, the self-aminoacylation with biotinyl-Leu-oxazolone is 2.29; in the data set on biotinyl-Val-oxazolone it was 2.22; in the data set on biotinyl-Trp-oxazolone it was 3.14; in the data set with biotinyl-Phe-oxazolone, 8.54; in the data set on biotinyl-Met-oxazolone, 2.67; with biotinyl-Ile-oxazolone, 1.94.
For “ACUCACCUAGGUCAGCGGGUG [Fam2.2 aminoacylation ribozyme variant]”, the self-aminoacylation came to 4.43 in the data set on biotinyl-Leu-oxazolone; 3.86 with biotinyl-Val-oxazolone; 4.54 in the data set on biotinyl-Trp-oxazolone; 31.4 with biotinyl-Phe-oxazolone; 4.16 in the data set on biotinyl-Met-oxazolone; 3.56 in the data set with biotinyl-Ile-oxazolone.
